Source: the supplement of paper PMC11908140

B1: library; numbered along this chain (parent)
chain: MRKPRAAVGSGHRKQAASQEGRQKHAKNNSQAKPSACDGLARQPEEVVLQASVSSYHLFRDVAEVTAFRGSLLSWYDQEKRDLPWRRRAEDEMDLDRRAYAVWVSEVMLQQTQVATVINYYTGWMQKWPTLQDLASASLEEVNQLWAGLGYYSRGRRLQEGARKVVEELGGHMPRTAETLQQLLPGVGRYTAGAIASIAFGQATGVVDGNVARVLCRVRAIGADPSSTLVSQQLWGLAQQLVDPARPGDFNQAAMELGATVCTPQRPLCSQCPVESLCRARQRVEQEQLLASGSLSGSPDVEECAPNTGQCHLCLPPSEPWDQTLGVVNFPRKASRKPPREESSATCVLEQPGALGAQILLVQRPNSGLLAGLWEFPSVTWEPSEQLQRKALLQELQRWAGPLPATHLRHLGEVVHTFSHIKLTYQVYGLALEGQTPVTTVPPGARWLTQEEFHTAAVSTAMKKVFRVYQGQQPGTCMGSKRSQVSSPCSRKKPRMGQQVLDNFFRSHISTDAHSLNSAAQ

Variants of: B1
Test: 8OG:A repair function score (normalized; synonymous = 0, nonsense = -1) (normalized log-likelihood score); higher = more repair activity (WT-like)
Settings: with 8OG:A DNA repair reporter (GFP) in HEK-293 MUTYH KO cells
Outline: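 Lentiviral MUTYH cDNA NNN codon-scan libraries in HEK-293 MUTYH knockout cells (10 pg/ml doxycycline) were co-transfected with an 8OG:A GFP repair reporter plus mCherry. At 72 h, viable mCherry+ cells were sorted into GFP+ (repair) and GFP− bins, three replicates per tile, then tile amplicons were sequenced. Per-tile Rosace fitness scores became a normalized repair function score anchored on synonymous and nonsense distributions. Synonymous medians were set to 0 and nonsense to -1; variants under 300 counts per million at the start were removed.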

Variant | 8OG:A repair function score
K492I | 0.0148
N329I | -0.365
G186Y | -0.992
V458Q | -0.711
L49N | 0.241
Y190L | -0.851
Y190F | -0.574
R246T | -0.728
H420A | -0.146
P365S | -0.116
G171Q | -0.338
S294C | -0.00327
R482T | -0.0344
A135F | -0.316
A135M | -0.467
A135C | -0.244
Y76M | -1.2
V102F | -0.714
S55M | -0.0231
S55A | 0.00283
N517P | 0.0174
R446W | -0.356
R446H | -0.177
P320E | -0.11

Variant | 8OG:A repair function score
S335H | 0.0625
N503F | 0.0039
S226M | -0.173
S226L | -0.314
F330R | -0.958
F330C | -0.248
F466Y | 0.00857
A334E | -0.0264
A334P | -0.147
E140G | -0.183
R69A | -1.46
D243H | -0.31
D243W | -0.67
V301F | -0.175
S367V | 0.0128
L295E | -0.0096
A220I | -0.848
A220V | -0.57
A177Q | -0.125
A177P | -0.0959
M478H | -0.119
S74D | -0.132
V348D | -1.83
V274G | -0.676

Variant | 8OG:A repair function score
D133Q | -0.164
Q498F | -0.0629
Q498N | -0.0368
S231E | 0.0501
P437L | -0.197
G479T | -0.0258
A305K | -0.0297
R491F | 0.0113
R491Y | -0.0848
S480Q | -0.00583
A36L | -0.0486
H172F | -0.0443
H172D | -0.0948
Q288K | -0.0373
Q288A | 0.00699
R154D | -1.11
S459Q | -0.749
M496R | 0.0258
M496F | 0.0105
M496A | 0.0241
E382W | 0.0332
S227R | -0.103
L72K | -1.1
L72R | -1.65

Variant | 8OG:A repair function score
V362Y | -0.434
Q358Y | -0.283
Q358F | -0.316
R156N | -0.179
R156K | 0.00226
K164F | 0.104
A147F | -0.305
A147W | -0.902
V230L | -0.499
R217G | -1.01
Q426E | -0.28
Q426T | -0.247
V117W | -0.737
S487C | 0.0168
G372R | -0.304
E168M | -0.0593
L131M | 0.0751
G201H | 0.0082
G188K | -1.11
G188M | -0.929
G188V | -1.04
V104P | -1.01
V104A | -0.365
S483W | -0.033

Variant | 8OG:A repair function score
T66N | -0.0376
S507I | -0.0448
S507M | -0.0199
S507P | 0.0118
A456D | -0.523
S318T | 0.116
I195D | -1.1
E256R | -0.814
E319G | -0.0752
E319I | -0.0159
W381F | -0.181
Q271M | -0.0166
E167H | -0.0317
A63V | -0.0122
A513R | 0.00911
Q132S | -0.109
Q132D | 0.0351
F200M | 0.0616
F200C | -0.266
K481H | -0.0426
A345W | -0.174
E303S | -0.0938
P185M | -0.282
P185A | -0.225

Variant | 8OG:A repair function score
C262T | -1.19
S296L | -0.0062
S296F | -0.00655
E451V | -0.135
E451M | 0.0404
E433P | 0.219
E433F | -0.199
C311K | -0.39
C311W | -0.459
T449M | -0.0649
C314F | -0.764
L408T | -0.417
L408A | -0.717
L145S | 0.0372
L40S | 0.073
T417N | 0.149
S343H | 0.00619
R175A | -0.0909
L290H | -0.0116
T346K | -0.886
L237E | -0.684
R332H | -0.163
E79W | -0.0018
Q202S | -0.0817

Variant | 8OG:A repair function score
Q202M | -0.234
Y151Q | -0.672
I359D | -0.946
G170Y | -0.062
G170H | 0.094
A99N | -1.45
V261S | -0.503
V261D | -0.737
P316S | -0.123
S486G | 0.0224
M173K | -0.971
M173T | -0.402
M173C | -0.257
Q310Y | -0.0597
Q310A | -0.00829
L134F | -0.116
L134H | -0.607
R495P | 0.0276
N119F | -0.259
E341V | -0.0649
V142Q | -0.397
C272R | -1.35
T260H | -0.293
T112L | -1.42

Variant | 8OG:A repair function score
L257G | -1.04
W85C | -1.57
W85L | -0.917
T460Y | -0.219
Q323G | -0.0264
V218P | -1.04
L315E | -0.305
V65F | -0.0274
P273M | -1.05
P273H | -0.569
P273T | -0.453
V206T | -0.338
V206H | -1.02
V62S | 0.00493
V62M | -0.00891
G150P | -1.54
P247Q | -0.968
P247E | -0.987
G444D | -0.275
G444Q | -0.113
E64K | -0.115
D208A | -1.04
P84H | -0.482
P494Y | -0.00726

Variant | 8OG:A repair function score
C278Y | -0.972
C278Q | -1.14
I509E | 0.0145
I509K | -0.00442
I509V | 0.0164
A519C | -0.00674
Q159C | 0.0194
S419R | -0.334
A461G | 0.00127
W399Y | 0.509
W399K | -0.616
Q50C | 0.0151
Q50L | -0.0733
S515W | -0.0167
S515M | -0.00894
V379F | -0.299
P383M | -0.333
A51P | 0.142
F59M | -0.121
S136D | 0.029
A245W | -0.0373
A245T | -0.0132
C216A | -0.252
C216I | -0.57

Variant | 8OG:A repair function score
P225A | -0.238
E46Q | 0.0688
G434W | 0.0509
T130I | -0.27
E350W | 0.0193
C347A | -0.0315
C347N | -1.21
C347M | -0.15
F504P | -0.0247
G475T | -0.0403
G475I | -0.00703
Q232Y | -0.106
Q232I | -0.459
F453G | -0.893
Q286E | -0.0273
A457S | -0.432
A457N | -0.58
A354L | -0.0264
A354T | -0.0601
G401N | 0.111
E285A | 0.00663
E285W | 0.0108
N366H | 0.288
N366R | -0.0785

Variant | 8OG:A repair function score
T122G | -0.143
Q240N | -0.999
Q240C | -1.01
Q240W | -1
L392T | -0.777
V327N | -0.696
S276R | -0.0136
S490K | 0.00805
T511G | 0.00111
E452Y | -0.442
L369M | 0.201
A137N | -0.267
H508P | 0.00413
S510K | -0.00453
L360Q | -0.916
W321T | -0.301
G193F | -0.465
G193N | 0.0644
G193Q | -0.238
G193L | -0.637
L158H | -0.935
E45Y | 0.0286
E178V | -0.12
G236P | -0.455

Variant | 8OG:A repair function score
G236L | -0.0738
P339F | -0.187
T455V | -0.122
M255Q | -0.993
A259M | -0.739
A371R | -0.219
D96K | -0.758
R266T | -0.142
R87G | -0.0274
E287N | -0.0363
S54M | -0.0179
Q394T | -0.314
F376P | -1.02
F376Q | -1.35
L432T | -0.151
N210Q | -0.95
T440P | -0.041
T440V | -0.0931
M93I | -0.0705
F68I | -0.126
F68C | -0.545
R157C | -0.297
Q233T | 0.244
Q233F | 0.305

Variant | 8OG:A repair function score
D77C | -0.0754
D77A | -0.0463
W75I | -2.41
H416S | -0.0543
L268I | -0.0493
Q450S | -0.114
E375T | -0.355
K127C | 0.0938
P338I | -0.0572
G293M | -0.0432
A41T | 0.0139
A41E | -0.0689
E92F | -0.016
K337N | -0.132
K337L | -0.136
L325C | -0.0972
L393K | -0.0987
L393F | -0.244
R2H | -0.00678
Q499Y | -0.045
Q499R | -0.0243
Q499V | 0.0113
N143R | -0.181
N143K | -0.343

Variant | 8OG:A repair function score
Q181Y | 0.00604
Q181P | -0.726
P306R | -0.0125
C489Y | 0.00164
V465F | -0.73
V465L | -0.379
Q435W | -0.125
Q435Y | 0.0772
T380F | 0.194
T308V | -0.00366
V441R | -0.293
V441E | -0.161
V242G | -0.916
V438T | -0.0976
Q397Y | -0.0393
Q397K | -0.304
D300M | -0.0873
V284E | -0.033
V284D | -0.0734
E385Y | -0.00387
R42D | 0.0284
R506L | 0.00814
